This data set has as its system Escherichia coli TOP10. Kind of data set: shrunken log2 fold change of peptide-encoding DNA abundance (4.5 h post-induction vs induction); higher = less antimicrobial activity (less host growth inhibition). To be noted: time post-induction: 4.5 h; library: site-saturation at positions 5, 18, 19, 20.
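Also: peptides expressed intracellularly from a pBAD plasmid library in pooled LB shake-flask culture, induced with 0.3% L-arabinose, DNA abundance read by NGS, three biological replicates, DESeq2 with apeglm shrinkage.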

For RRIRFRPPRLPRPRPRPAMPPRP, the “shrunken log2 fold change” value is 0.0356.

As for RRIRDRPPRLPRPRPRPNGRPRP, the “shrunken log2 fold change” value amounted to 0.00232. The figure for RRIRSRPPRLPRPRPRPRFGPRP is 0.342; for RRIRRRPPRLPRPRPRPGHLPRP it is 0.067; for RRIRSRPPRLPRPRPRPYMGPRP it is -0.776. Then RRIRARPPRLPRPRPRPSMGPRP, with -0.0314; and RRIRIRPPRLPRPRPRPVGSPRP, with 0.36. The figure for RRIRDRPPRLPRPRPRPCNNPRP is -0.931; for RRIRPRPPRLPRPRPRPWEWPRP it is 0.0238. Consider RRIRERPPRLPRPRPRPFLTPRP, for which the “shrunken log2 fold change” value was -0.506. Then RRIRNRPPRLPRPRPRPLTWPRP, with -0.182. Then RRIRVRPPRLPRPRPRPHARPRP, with 0.0538; and RRIRFRPPRLPRPRPRPCVPPRP, with -0.835; and RRIRSRPPRLPRPRPRPEQKPRP, with 0.0179.

Regarding RRIRGRPPRLPRPRPRPALSPRP, the “shrunken log2 fold change” value worked out at 1.31. Turning to RRIRYRPPRLPRPRPRPKFMPRP, the “shrunken log2 fold change” value is -0.633. The figure for RRIRDRPPRLPRPRPRPFYGPRP is -0.108; for RRIRTRPPRLPRPRPRPACDPRP it is 0.139; for RRIRERPPRLPRPRPRPHFDPRP it is -0.14. In the case of RRIRRRPPRLPRPRPRPWHMPRP, the “shrunken log2 fold change” value turned out to be 0.0729. As to RRIRPRPPRLPRPRPRPHHGPRP, the “shrunken log2 fold change” value was 0.0245. Then RRIRERPPRLPRPRPRPATPPRP, with 1.31. Then RRIRDRPPRLPRPRPRPWKVPRP, with -0.0565; and RRIRCRPPRLPRPRPRPNTPPRP, with -0.345. The figure for RRIRFRPPRLPRPRPRPHYFPRP is -0.161; for RRIRNRPPRLPRPRPRPPNRPRP it is 2.99. With RRIRERPPRLPRPRPRPEQQPRP, the “shrunken log2 fold change” value is -0.0255.

In the case of RRIRVRPPRLPRPRPRPCDVPRP, the “shrunken log2 fold change” value worked out at 0.0119.

For the sequence RRIRDRPPRLPRPRPRPSWGPRP, the “shrunken log2 fold change” value was 0.0384. The figure for RRIRMRPPRLPRPRPRPVDRPRP is 0.278. Then RRIRPRPPRLPRPRPRPFHEPRP, with -0.187; and RRIRCRPPRLPRPRPRPEWPPRP, with 0.331.

Regarding RRIRIRPPRLPRPRPRPKLMPRP, the “shrunken log2 fold change” value is -0.171. Then RRIRCRPPRLPRPRPRPSPKPRP, with -0.326; and RRIRTRPPRLPRPRPRPFHSPRP, with -0.137; and RRIRRRPPRLPRPRPRPLWIPRP, with -0.22. Then RRIRFRPPRLPRPRPRPTLCPRP, with 0.107; and RRIRPRPPRLPRPRPRPKPDPRP, with 0.0452.

With RRIRLRPPRLPRPRPRPTAFPRP, the “shrunken log2 fold change” value turned out to be 0.0454. The figure for RRIRNRPPRLPRPRPRPCNCPRP is -0.00865. With RRIRMRPPRLPRPRPRPKHIPRP, the “shrunken log2 fold change” value was -0.0498. Then RRIRVRPPRLPRPRPRPKVPPRP, with -0.00247. Then RRIRLRPPRLPRPRPRPGSFPRP, with 0.236; and RRIRDRPPRLPRPRPRPQTHPRP, with 0.269; and RRIRRRPPRLPRPRPRPNLCPRP, with 0.00272. As to RRIRMRPPRLPRPRPRPIMSPRP, the “shrunken log2 fold change” value worked out at 0.0205. Turning to RRIRCRPPRLPRPRPRPTYPPRP, the “shrunken log2 fold change” value is -0.274.

Turning to RRIRHRPPRLPRPRPRPFKRPRP, the “shrunken log2 fold change” value was found to be 0.0885. For the sequence RRIRMRPPRLPRPRPRPWAVPRP, the “shrunken log2 fold change” value was 0.396. With RRIRIRPPRLPRPRPRPHACPRP, the “shrunken log2 fold change” value is -1.14.

As to RRIRFRPPRLPRPRPRPLFRPRP, the “shrunken log2 fold change” value is -0.372. Then RRIRQRPPRLPRPRPRPIGPPRP, with 0.229. RRIRGRPPRLPRPRPRPLSVPRP: the “shrunken log2 fold change” value came to 0.383. Then RRIRHRPPRLPRPRPRPPWWPRP, with 0.18. Then RRIRVRPPRLPRPRPRPDVSPRP, with -0.0827. The figure for RRIRSRPPRLPRPRPRPDLCPRP is -0.159; for RRIRLRPPRLPRPRPRPFNLPRP it is -0.596. Regarding RRIRFRPPRLPRPRPRPTHSPRP, the “shrunken log2 fold change” value was found to be 0.207. Then RRIRWRPPRLPRPRPRPHAMPRP, with 0.00797; and RRIRIRPPRLPRPRPRPQIMPRP, with -1.16; and RRIRVRPPRLPRPRPRPHDIPRP, with 0.0663. The figure for RRIRKRPPRLPRPRPRPGMTPRP is 0.129; for RRIRGRPPRLPRPRPRPCRLPRP it is 0.123.

For the sequence RRIRSRPPRLPRPRPRPSISPRP, the “shrunken log2 fold change” value was -0.584. Then RRIRNRPPRLPRPRPRPLIAPRP, with -0.305; and RRIRLRPPRLPRPRPRPPCLPRP, with 0.0124; and RRIRWRPPRLPRPRPRPPHYPRP, with 0.24. Then RRIRWRPPRLPRPRPRPSCGPRP, with 0.0847; and RRIRWRPPRLPRPRPRPGNLPRP, with -0.00261; and RRIRARPPRLPRPRPRPRWGPRP, with 0.425. The figure for RRIRMRPPRLPRPRPRPPVWPRP is 0.825; for RRIRVRPPRLPRPRPRPMGFPRP it is 0.034; for RRIRERPPRLPRPRPRPVFRPRP it is -0.0125.

Turning to RRIRTRPPRLPRPRPRPDCRPRP, the “shrunken log2 fold change” value is 0.106. Then RRIRWRPPRLPRPRPRPSLCPRP, with 0.384; and RRIRCRPPRLPRPRPRPWGTPRP, with -0.0869.

Take RRIRERPPRLPRPRPRPWVHPRP: the “shrunken log2 fold change” value was -0.0432.

For the sequence RRIRDRPPRLPRPRPRPEMHPRP, the “shrunken log2 fold change” value worked out at 0.891. The figure for RRIRPRPPRLPRPRPRPLFTPRP is -0.385. With RRIRTRPPRLPRPRPRPKMTPRP, the “shrunken log2 fold change” value was found to be 0.214.

Regarding RRIRKRPPRLPRPRPRPENLPRP, the “shrunken log2 fold change” value amounted to 3.46. RRIRHRPPRLPRPRPRPIWNPRP: the “shrunken log2 fold change” value is -0.892. Then RRIRNRPPRLPRPRPRPVNHPRP, with -0.163.

RRIRLRPPRLPRPRPRPQRIPRP: the “shrunken log2 fold change” value is -0.141. Then RRIRYRPPRLPRPRPRPNEEPRP, with -0.0952. The figure for RRIRGRPPRLPRPRPRPDYTPRP is 0.343. Then RRIRRRPPRLPRPRPRPSNGPRP, with -0.296; and RRIRFRPPRLPRPRPRPNANPRP, with -0.0822. Regarding RRIRTRPPRLPRPRPRPAICPRP, the “shrunken log2 fold change” value was -0.552.

For the sequence RRIRVRPPRLPRPRPRPDEVPRP, the “shrunken log2 fold change” value is 0.0201.

For the sequence RRIRDRPPRLPRPRPRPRMPPRP, the “shrunken log2 fold change” value came out at 0.156. In the case of RRIRCRPPRLPRPRPRPDNTPRP, the “shrunken log2 fold change” value was 0.881. Then RRIRQRPPRLPRPRPRPYGQPRP, with -0.239. Then RRIRMRPPRLPRPRPRPVLSPRP, with 0.0984.

On to RRIRRRPPRLPRPRPRPSVNPRP, for which the “shrunken log2 fold change” value is -0.308. Regarding RRIRHRPPRLPRPRPRPDNFPRP, the “shrunken log2 fold change” value is -0.0184. Then RRIRPRPPRLPRPRPRPTLSPRP, with 0.421; and RRIRERPPRLPRPRPRPMVVPRP, with -0.261. The figure for RRIRDRPPRLPRPRPRPPMQPRP is 0.172; for RRIRDRPPRLPRPRPRPRPLPRP it is 0.39. RRIRMRPPRLPRPRPRPPCQPRP: the “shrunken log2 fold change” value was found to be 0.505. Then RRIRVRPPRLPRPRPRPMYTPRP, with -0.23; and RRIRQRPPRLPRPRPRPCVIPRP, with -0.409.

As for RRIRSRPPRLPRPRPRPFRRPRP, the “shrunken log2 fold change” value is -0.261.

With RRIRVRPPRLPRPRPRPDLTPRP, the “shrunken log2 fold change” value is -0.263. The figure for RRIRARPPRLPRPRPRPFAPPRP is 0.61. RRIRWRPPRLPRPRPRPNMPPRP: the “shrunken log2 fold change” value is -0.268.

Turning to RRIRKRPPRLPRPRPRPRKTPRP, the “shrunken log2 fold change” value was found to be 0.303. The figure for RRIRGRPPRLPRPRPRPEYRPRP is 0.354; for RRIRSRPPRLPRPRPRPHPVPRP it is 0.12. Take RRIRARPPRLPRPRPRPPNQPRP: the “shrunken log2 fold change” value was determined as 0.691. Then RRIRKRPPRLPRPRPRPAKAPRP, with 0.106; and RRIRWRPPRLPRPRPRPDHEPRP, with -0.0396. Take RRIRERPPRLPRPRPRPESSPRP: the “shrunken log2 fold change” value is -0.192. The figure for RRIRSRPPRLPRPRPRPYFSPRP is -0.611; for RRIRVRPPRLPRPRPRPRDDPRP it is -0.104; for RRIRKRPPRLPRPRPRPGQMPRP it is 0.00812.

With RRIRLRPPRLPRPRPRPWKVPRP, the “shrunken log2 fold change” value was 0.0854. The figure for RRIRNRPPRLPRPRPRPPSVPRP is 0.0886; for RRIRRRPPRLPRPRPRPTHAPRP it is 1.13; for RRIRKRPPRLPRPRPRPFLDPRP it is 0.0893. Then RRIRRRPPRLPRPRPRPAIAPRP, with 0.468.

Regarding RRIRWRPPRLPRPRPRPCEMPRP, the “shrunken log2 fold change” value was 0.0732.

With RRIRTRPPRLPRPRPRPALWPRP, the “shrunken log2 fold change” value was 0.213. Then RRIRGRPPRLPRPRPRPGSNPRP, with 0.0237.
